The values below come from article PMC9273042 (Science Immunology, 2022).

Common to all, as to conditions: both partners purified
Experiment [1] deals with Trimer Spike (soluble, WA1/2020 variant) (SARS-CoV-2, WA1/2020, UniProt P0DTC2). Kind of experiment: SPR. (Surface plasmon resonance follows binding to a sensor surface in real time, without labels.)
In experiment [2] the target is soluble RBD (WA1/2020 variant) (SARS-CoV-2, WA1/2020, UniProt P0DTC2). Kind of experiment: SPR.
For experiment [3], the target named is T1, RBD, REF variant (Wuhan-1) (SARS-CoV-2, UniProt P0DTC2).
T1 construct: source: bought: SinoBio
Kind of experiment: ELISA. A general note: An ELISA detects its analyte on a solid surface through an enzyme-linked reagent.

Experiment [4] deals with T2, RBD, SA variant (Beta) (SARS-CoV-2, UniProt P0DTC2).
T2 construct: source: bought: SinoBio
The experiment is described as follows: ELISA.

The target in experiment [5] is T3, RBD, UK variant (Alpha) (SARS-CoV-2, UniProt P0DTC2).
T3 construct: source: bought: SinoBio
The experiment is described as follows: ELISA.

Experiment [6] addresses SARS-CoV-2 S 6P trimer (SARS-CoV-2, Wuhan-Hu-1/WA1 type, S-6P, stabilised). Kind of experiment: cryo-EM structure.

B1: IMM20253 (antibody, V domains shown)
VH: QVQLVESGGGVVQPGRSLRLSCTASGFTFSTYGMHWVRQAPGKGLEWVAVISYDGSSKHYAESVKGRFTISRDNSNNTLYLQMNRLRAEDTAVYYCARDGQPPGWGNYFDYWGQGTLVTVAS
VL: SYVLTQPPSVSVAPGKTARITCGGNGIGSKSVYWYQQKPGQAPEVVVYDDSDRPSGIPERFSGSNSGNTATLTISRVEAGDEADYYCQVWDSSSDPWVFGGGTKLTVL
Regarding B1, the Kd (as a rule, the free concentration of one partner at which half of the binding sites on the other are occupied at equilibrium, for simple one-to-one binding) in experiment [1] was determined as 1.44 nM; in experiment [2] it was 0.157 nM. Also, the results for the koff in experiment [1] and in experiment [2] were 0.000117 s⁻¹ and 0.000218 s⁻¹, respectively. The kon (in general, a measure of how fast the partners come together) came to 81300 M⁻¹ s⁻¹ in experiment [1] and 1.39e+06 M⁻¹ s⁻¹ in experiment [2]. The “percent inhibition of ACE2 binding” value in experiment [3], in experiment [4] and in experiment [5] was not above 40% in each case.

B2: IMM20253 Fab (Fab, V domains shown)
VH: B1 VH
VL: B1 VL
notes: Fab of m3
As to B2, the “stoichiometry N” value in experiment [6] was 1 Fab:Trimer.

B3: IMM20184 Fab (Fab, V domains shown)
VH: EVQLVESGGGLVQPGGSLRLSCSASGFTFSSFWMSWVRQAPGKGLEWVATIREDGSEKYYVDSVKGRFSISRDNAKNSLYLQMNSLRAEDTAVYYCARSKWLRGSFDYWGQGTLVTVSS
VL: NFMLTQPHSVSESPGKTVTISCTRRSGSIASNYVQWYQQRPGSAPTTVIYEDNQRPSGVPDRFSGSIDSSSNSASLTISGLQTEDEADYYCQSYDSSNPPGASWVFGGGTKLTVL
notes: Fab of m1
On to B3, for which the “stoichiometry N” value in experiment [6] was 3 Fab:Trimer.

B4: IMM20184 (antibody, V domains shown)
VH: B3 VH
VL: B3 VL
Turning to B4, in experiment [1], the affinity, expressed as Kd, was 7.35 nM; the koff – broadly, the rate constant with which the complex falls apart – is 0.000229 s⁻¹; the kon was determined as 31200 M⁻¹ s⁻¹. In addition, in experiment [2], the affinity, expressed as Kd, was 2.2 nM; the koff is 0.00131 s⁻¹; the kon is 595000 M⁻¹ s⁻¹.

B5: IMM20190 (antibody, V domains shown)
VH: EVQLVESGGGLVQPGGSLRLSCSASGFTVSSNYMSWVRQAPRKGLEWVSVIYAGGSTFYADSVKGRFTISRDNSKNTLLLQMNSLRAEDTAVYYCARDRGGYLDYWGQGTLVTVSS
VL: DIQMTQSPSSLSASVGDRVTITCRASQGISNYLAWYQQKPGKVPKLLIYAASTLQSGVPSRFSGSGSGTDFTLTISSLQPEDVATYYCQKYNSAPGLTFGGGTKVEIK
In experiment [1], B5 came in with a Kd of 6.59 nM, a koff of 0.000195 s⁻¹ and a kon of 29500 M⁻¹ s⁻¹. In experiment [2], this molecule came in with a Kd of 1.87 nM, a koff of 0.000376 s⁻¹ and a kon of 202000 M⁻¹ s⁻¹.

B6: IMM20190 Fab (Fab, V domains shown)
VH: B5 VH
VL: B5 VL
notes: Fab of m2
As for B6, the “stoichiometry N” value in experiment [6] is 3 Fab:Trimer.
